Assay results as given in patent US11111484B2, “Streptococcus bacteriophage lysins for detection and treatment of gram positive bacteria” (priority 2011, dated 2021).
Values joined by “and” are separate entries in the source; they are usually repeats but may differ in a detail not shown here. Identical values can stand only once. “Also recorded” adds a separate entry of the source.

What was measured:
MRSA = experiment: rat MRSA wound infection with sterile sand (foreign body); format: in vivo, rats; settings: for CFU/Gram, AVG: 10 mg PlySs2 single dose, 15 rats, after 10 days, not true Avg since < values
Procedure: Animal experiments were initiated by determining the infectious dose of MRSA necessary to cause infection in the rat wound. […] However, when we added a foreign body ([…]), infection occurred at <10^8 CFUs. Specifically, incisions were made in the backs of the rats (5-6 cm in length) and a 2-3 mm incision was made in the underlying tissue. To this was added 100 mg sterile sand and 50 μl of MRSA. The wounds were stapled closed and the animals followed for 10 days and the wounds opened and examined for gross changes and tissue samples taken for bacteriological examination.
Samples (weighed and homogenized tissue) taken from the opened wound yielded about 10^7 CFU MRSA/gram of tissue. This model was very reproducible yielding the same results in at least 10 animals.
We used the model as described above to treat with PlySs2 lysin to determine the effects of the treatment. In this case, half of the animals receiving the MRSA and sand were treated with 10 mg PlySs2 in 50 ul of phosphate buffer (PB), control animals received PB instead 10 minutes after MRSA dosing. The animals were followed for 10 days. At this time the animals were analyzed for gross changes and microbiology. […] This is in sharp contrast to animals treated with a single dose of PlySS2.

S. pyogenes = experiment: CFU studies, bactericidal effect; format: cell-based, Streptococcus pyogenes; settings: 128 μg/ml PlySs2, 1 hour
Procedure: Log-phase bacteria were resuspended in buffer A to an OD600 of 0.1 (=0.5 McFarland≈10^8 CFU/ml). PlySs2 was added at 128 μg/ml to polypropylene microtiter plates (Costar) in triplicate for each test organism. Plates were sealed and incubated at 37° C. with shaking every 5 minutes for 1 hour. After 1 hour of incubation, cells were serially diluted in 10-fold increments and plated on BHI. Triplicate controls for each strain were performed with buffer B replacing PlySs2.

S. aureus strains = experiment: PlySs2 lytic activity against species and strains (FIG. 25); format: cell-based, Staphylococcus aureus; settings: all tested S. aureus strains; 32 μg/ml, 60 minutes
Procedure: FIG. 25 provides PlySs2 activity against different species and strains. Log-phase cultures were exposed to 32 μg/ml PlySs2 for 60 minutes in phosphate buffer. The final OD600 of the treated samples were divided by the final OD600 of the untreated samples to generate the normalized values above. Multiple Staphylococci (including, but not limited to: MRSA, MSSA, and VISA), Streptococci, Listeria, Enterococci, and Bacilli were tested for susceptibility to PlySs2 activity. Escherichia and Pseudomonas were tested as Gram-negative controls.

S. suis 7997 = experiment: PlySs2 biochemical characterization, turbidity reduction (OD600)
S. suis strain 7997 = experiment: PlySs2 OD600 lytic activity test, various concentrations; format: cell-based, Streptococcus suis
E. faecium EFSK2 = experiment: ΔPlySs1 OD600 lysis, 1 hr, optimal buffering conditions; format: cell-based, Enterococcus faecium
S. dysgalactiae GGS = experiment: as above; format: cell-based, Streptococcus dysgalactiae
B. subtilis SL4 = experiment: as above; format: cell-based, Bacillus subtilis
S. suis ST8 = experiment: as above; format: cell-based, Streptococcus suis
Procedure: Truncated PlySs1(ΔPlySs1) lysin activity was determined against different cell types. Given the above experiments, the following optimal buffering conditions were employed for all further in vitro experiments with ΔPlySs1: 20 mM phosphate buffer, pH=7.8, 2 mM EDTA. A range of lysin concentrations, from 6.5-130 μg/ml, were introduced to live S. suis cells in this buffer. Three strains were considered particularly relevant: 7711, the serotype 7 strain that encodes PlySs1; S735, the serotype 2 reference strain; and 7997, a highly virulent serotype 9 strain. In terms of bacterial viability, only the highest PlySs1-concentration (130 μg/ml) led to a >90% decrease in CFUs for 7711, S735, and 7997 after 1 hr treatment (TABLE 2). The lysin was also tested against actively-dividing cells in broth culture (strain 7711) (FIG. 20).
ΔPlySs1 was further tested against a panel of 19 other S. suis strains of diverse serotypes, as well as other species of Gram-positive bacteria. The same lysin concentrations were used as above. For each dosage, the observed lysis values after 1 hr are listed in TABLE 3 and TABLE 4, and the information is summarized graphically in FIG. 21.

S. gordonii 10558 = experiment: as above; format: cell-based, Streptococcus gordonii
S. epidermidis HN1292 = experiment: as above; format: cell-based, Staphylococcus epidermidis
B. cereus 14579 = experiment: as above; format: cell-based, Bacillus cereus

B1: PlySs2: Streptococcus suis prophage lysin, SEQ ID NO:3; N-terminal CHAP domain and C-terminal SH3-type 5 domain (protein, listed as Streptococcus suis)
chain: MTTVNEALNNVRAQVGSGVSVGNGECYALASWYERMISPDATVGLGAGVGWVSGAIGDTISAKNIGSSYNWQANGWTVSTSGPFKAGQIVTLGATPGNPYGHVVIVEAVDGDRLTILEQNYGGKRYPVRNYYSAASYRQQVVHYITPPGTVAQSAPNLAGSRSYRETGTMTVTVDALNVRRAPNTSGEIVAVYKRGESFDYDTVIIDVNGYVWVSYIGGSGKRNYVATGATKDGKRFGNAWGTFK
With B1 the “CFU/Gram, individual rats P1-P15” value (MRSA; 10 mg PlySs2 single dose 10 minutes after MRSA, wound tissue after 10 days) was <5.00E+01 CFU/Gram (10×) and 9.10E+01 CFU/Gram and 5.00E+01 CFU/Gram and 8.40E+02 CFU/Gram and 3.20E+02 CFU/Gram (2×), the “CFU/Gram, AVG” value (MRSA) was 1.41×10^2 CFU/Gram and the “CFU/Gram, AVG” value (MRSA; listed as PLYSS2) was 1.41E+02 CFU/Gram. For the same molecule, the “CFU Reduction vs Control” value (MRSA; AVG buffer / AVG PlySs2) was “CFU Reduction vs Control 3.02E+04”, the “reduction of MRSA” value (MRSA; PlySs2 vs buffer, wound tissue after 10 days) was over 4 logs and the “gross changes of wounds” value (MRSA; single dose of PlySS2, 10 days) was “did not exhibit pus or necrosis and exhibited better healing”. The “reduction of colony forming units (CFUs)” value (S. pyogenes) was 3 logs, the “susceptibility to PlySs2 lysis” value (S. aureus strains) was “highly susceptible” and the “consecutive room temperature to −80° C. freeze-thaws without effect on activity” value (S. suis 7997) was 10. For the same molecule, the “effect of NaCl on bacteriolysis” value (S. suis 7997; 0-1000 mM NaCl, constant enzyme concentration) was “bacteriolysis decreased from 0-1000 mM NaCl”, the “effect of EDTA on lysis” value (S. suis 7997; 15 mM Na3PO4, pH 8.0, various EDTA concentrations) was “impeded PlySs2-induced lysis” and the “activity after 15 days of 4° C. incubation” value (S. suis 7997; 4° C., 15 days) was “no observable decrease in activity; also recorded: stable”. For the same molecule, the “activity after incubation at 37° C. for 24 hours” value (S. suis 7997; 37° C., 24 hours) was “retained full activity; also recorded: stable”, the “stability up to 24 hours at 37° C. in buffer” value (S. suis 7997; 37° C., 24 hours, killing of strain 7997) was over 90% and the “activity after 48-hour 37° C. incubation” value (S. suis 7997; 37° C., 48 hours) was “diminished activity”. The “activity maintained after 48 hours at 37° C.” value (S. suis 7997; 37° C., 48 hours) was “at least 50%”, the “temperature at which activity completely abolished” value (S. suis 7997; 30 min incubation) was 60 °C and the “pH of maximal lysis in BTP” value (S. suis 7997; BTP buffer pH 7.0-9.7) was 9.7. For the same molecule, the “acute activity up to pH” value (S. suis 7997; Bis-tris propane (BTP) buffer) was at most 9.7, the “activity down to pH” value (S. suis 7997; PlySs2 32 μg/ml) was at least 6.0 and the “effect of excess DTT on activity” value (S. suis 7997; data not shown) was “no impact”. The “pH of strongest activity” value (S. suis 7997; phosphate/citrate buffer pH 4.6-8.0, PlySs2 32 μg/ml) was 8.0, the “activity retained on storage in buffer at −80° C.” value (S. suis 7997; up to at least 7 months at −80° C.) was about 100% and the “NaCl concentration of greatest activity” value (S. suis 7997; various NaCl concentrations) was 0 mM. The “concentration giving acute lytic activity” value (S. suis strain 7997) was at least 8 µg/mL.

B2: ΔPlySs1: truncated PlySs1 lysin, SEQ ID NO:2, N-terminal 254 amino acids: only N-terminal enzymatic and central binding domains (protein, listed as Streptococcus suis)
chain: MTINLETSIRWMSDRVGKVSYSMDYRNGPNSYDCSSAVYYALMAGGAISAGWAVNTEYMHDWLIRNGYVLVAENKPFNAQRHDVCILGKRGYSSGAGGHVVIFVDNVNVIHCNYARNGISIDNYNQVHRGMYYYLYRPANQPSISNKSLDQLVKETLAGVHGNGDTRKASLGSQYEAVMAVINGKASASEKSDEELAREVLAGKHGAGEDRKRSLGPRYEPVQAKVNELLKAKEKPSETAKNEPQTVQFKEDGDL
For B2, the “lysis value after 1 hr (treated/untreated OD600 ratio)” value (E. faecium EFSK2; 6.5 μg/ml) was 0.85, the “lysis value after 1 hr (treated/untreated OD600 ratio)” value (E. faecium EFSK2; 13 μg/ml) was 0.67 and the “lysis value after 1 hr (treated/untreated OD600 ratio)” value (E. faecium EFSK2; 30 μg/ml) was 0.52. For the same molecule, the “lysis value after 1 hr (treated/untreated OD600 ratio)” value (E. faecium EFSK2; 65 μg/ml) was 0.32, the “lysis value after 1 hr (treated/untreated OD600 ratio)” value (E. faecium EFSK2; 130 μg/ml) was 0.13 and the “lysis value after 1 hr (treated/untreated OD600 ratio)” value (S. dysgalactiae GGS; 6.5 μg/ml) was 0.30. For the same molecule, the “lysis value after 1 hr (treated/untreated OD600 ratio)” value (S. dysgalactiae GGS; 13 μg/ml) was 0.27, the “lysis value after 1 hr (treated/untreated OD600 ratio)” value (S. dysgalactiae GGS; 30 μg/ml) was 0.15 and the “lysis value after 1 hr (treated/untreated OD600 ratio)” value (S. dysgalactiae GGS; 65 μg/ml) was 0.11. For the same molecule, the “lysis value after 1 hr (treated/untreated OD600 ratio)” value (S. dysgalactiae GGS; 130 μg/ml) was 0.14, the “lysis value after 1 hr (treated/untreated OD600 ratio)” value (B. subtilis SL4; 6.5 μg/ml) was 1.07 and the “lysis value after 1 hr (treated/untreated OD600 ratio)” value (B. subtilis SL4; 13 μg/ml) was 1.05. For the same molecule, the “lysis value after 1 hr (treated/untreated OD600 ratio)” value (B. subtilis SL4; 30 μg/ml) was 1.04, the “lysis value after 1 hr (treated/untreated OD600 ratio)” value (B. subtilis SL4; 65 μg/ml) was 1.03 and the “lysis value after 1 hr (treated/untreated OD600 ratio)” value (B. subtilis SL4; 130 μg/ml) was 0.96. The “1-hour treated/untreated OD600-ratio” value (S. suis ST8; 6.5 μg/ml) was 0.25, the “1-hour treated/untreated OD600-ratio” value (S. suis ST8; 13 μg/ml) was 0.12 and the “1-hour treated/untreated OD600-ratio” value (S. suis ST8; 30 μg/ml) was 0.06. For the same molecule, the “1-hour treated/untreated OD600-ratio” value (S. suis ST8; 65 μg/ml) was 0.03, the “1-hour treated/untreated OD600-ratio” value (S. suis ST8; 130 μg/ml) was 0.03 and the “lysis value after 1 hr (treated/untreated OD600 ratio)” value (S. gordonii 10558; 6.5 μg/ml) was 0.76. The “lysis value after 1 hr (treated/untreated OD600 ratio)” value (S. gordonii 10558; 13 μg/ml) was 0.32, the “lysis value after 1 hr (treated/untreated OD600 ratio)” value (S. gordonii 10558; 30 μg/ml) was 0.19 and the “lysis value after 1 hr (treated/untreated OD600 ratio)” value (S. gordonii 10558; 65 μg/ml) was 0.09. For the same molecule, the “lysis value after 1 hr (treated/untreated OD600 ratio)” value (S. gordonii 10558; 130 μg/ml) was 0.06, the “lysis value after 1 hr (treated/untreated OD600 ratio)” value (S. epidermidis HN1292; 6.5 μg/ml) was 1.04 and the “lysis value after 1 hr (treated/untreated OD600 ratio)” value (S. epidermidis HN1292; 13 μg/ml) was 1.00. For the same molecule, the “lysis value after 1 hr (treated/untreated OD600 ratio)” value (S. epidermidis HN1292; 30 μg/ml) was 0.96, the “lysis value after 1 hr (treated/untreated OD600 ratio)” value (S. epidermidis HN1292; 65 μg/ml) was 0.94 and the “lysis value after 1 hr (treated/untreated OD600 ratio)” value (S. epidermidis HN1292; 130 μg/ml) was 0.87. The “lysis value after 1 hr (treated/untreated OD600 ratio)” value (B. cereus 14579; 6.5 μg/ml) was 0.93, the “lysis value after 1 hr (treated/untreated OD600 ratio)” value (B. cereus 14579; 13 μg/ml) was 0.92 and the “lysis value after 1 hr (treated/untreated OD600 ratio)” value (B. cereus 14579; 30 μg/ml) was 0.86. The “lysis value after 1 hr (treated/untreated OD600 ratio)” value (B. cereus 14579; 65 μg/ml) was 0.90 and the “lysis value after 1 hr (treated/untreated OD600 ratio)” value (B. cereus 14579; 130 μg/ml) was 0.86.
